Tests used:
[1] = biological target: Bovine-biotinamidocaproyl-labeled Albumin (biotinylated-BSA) (bovine) (UniProt P02769); assay: MA-SPCL, 33 nM Qdots-streptavidin on biotinylated-BSA coated gold disk, in whole blood, 655 nm, 217 degrees
[2] = biological target: Bovine-biotinamidocaproyl-labeled Albumin (biotinylated-BSA) (bovine) (UniProt P02769); assay: MA-SPCL, 33 nM Qdots-streptavidin on biotinylated-BSA coated gold disk, in serum, 655 nm, 217 degrees
[3] = biological target: Bovine-biotinamidocaproyl-labeled Albumin (biotinylated-BSA) (bovine) (UniProt P02769); assay: MA-SPCL, 33 nM Qdots-streptavidin on biotinylated-BSA coated gold disk, emission at 217 degrees; similar after 30 min at room temperature

UniProt P02769, sequence (P02769 25-607 limits assumed): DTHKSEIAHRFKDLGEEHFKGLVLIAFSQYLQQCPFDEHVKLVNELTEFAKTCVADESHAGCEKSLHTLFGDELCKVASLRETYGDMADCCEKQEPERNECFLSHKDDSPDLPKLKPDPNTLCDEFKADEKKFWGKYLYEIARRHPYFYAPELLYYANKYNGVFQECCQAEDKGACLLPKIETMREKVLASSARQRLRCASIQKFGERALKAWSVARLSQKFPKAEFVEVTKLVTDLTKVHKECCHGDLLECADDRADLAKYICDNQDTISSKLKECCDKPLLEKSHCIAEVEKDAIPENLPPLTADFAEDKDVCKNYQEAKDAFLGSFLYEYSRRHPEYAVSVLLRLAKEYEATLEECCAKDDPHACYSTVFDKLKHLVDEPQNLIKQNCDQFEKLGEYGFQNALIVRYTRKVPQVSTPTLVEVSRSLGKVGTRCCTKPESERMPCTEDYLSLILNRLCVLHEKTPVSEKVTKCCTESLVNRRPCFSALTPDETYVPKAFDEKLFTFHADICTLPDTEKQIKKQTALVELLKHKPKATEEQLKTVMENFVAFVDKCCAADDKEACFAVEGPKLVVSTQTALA

peak luminescence intensity in whole blood relative to buffer [1]: 20%
peak luminescence intensity in serum relative to buffer [2]: 75%
final luminescence intensity [3]: 150 au
Substance: Quantum dot 655-labeled streptavidin (Qdots-streptavidin) (from UniProt P22629 37-163)

From patent publication US20120107952A1
